Key:
[1] = molecular target: citrullinated histone H2A and H4 present in pre-NETs (A23187-stimulated human neutrophils) (human) (UniProt P0C0S8); assay: flow cytometry on fixed and permeabilized leukocytes of A23187-stimulated whole blood; detection with goat-anti-human IgG-Alexa Fluor 488; negative control, same value as without antibody
[2] = molecular target: citrullinated histone H2A and H4 present in pre-NETs (A23187-stimulated human neutrophils) (human) (UniProt P0C0S8); assay: cell-based or functional assay
[3] = molecular target: citrullinated histone H2A and H4 present in pre-NETs (A23187-stimulated human neutrophils) (human) (UniProt P0C0S8); assay: flow cytometry on fixed and permeabilized leukocytes of A23187-stimulated whole blood; detection with goat-anti-human IgG-Alexa Fluor 488

% pre-NETs (FITC+ of CD66b+ leukocytes, indicating antibody binding) [1]	NET-inhibitory effect compared to No Ab at 210 min (live imaging fluorescence microscopy, A23187-stimulated neutrophils) [2]	NETs after 210 min (percentage of neutrophils at t=0) [2]	% pre-NETs (FITC+ of CD66b+ leukocytes, indicating antibody binding) [3]	Substance
5%	–	–	–	isotype control antibody
–	66%	8%	15%	CIT-013 (antibody)
